From patent publication US6222018, “Hypoxia inducible factor-1 and method of use” (The Johns Hopkins University School of Medicine)

How the values were obtained:
[1] = target: T1, HIF-1 (HIF-1alpha/HIF-1beta (ARNT) heterodimer), affinity-purified (Homo sapiens, UniProt Q16665;P27540 Q16665:1-826,P27540:2-789); assay: EMSA; competed by unlabeled W18 but not M18; buffer Z-100; details: tags: none; from CoCl2-treated HeLa S3 cells or hypoxic Hep3B cells; chain copies: heterodimer (inferred), higher-order form also seen; 5' gatc overhangs
T1 sequence (Q16665 whole entry, chain 1 of 2): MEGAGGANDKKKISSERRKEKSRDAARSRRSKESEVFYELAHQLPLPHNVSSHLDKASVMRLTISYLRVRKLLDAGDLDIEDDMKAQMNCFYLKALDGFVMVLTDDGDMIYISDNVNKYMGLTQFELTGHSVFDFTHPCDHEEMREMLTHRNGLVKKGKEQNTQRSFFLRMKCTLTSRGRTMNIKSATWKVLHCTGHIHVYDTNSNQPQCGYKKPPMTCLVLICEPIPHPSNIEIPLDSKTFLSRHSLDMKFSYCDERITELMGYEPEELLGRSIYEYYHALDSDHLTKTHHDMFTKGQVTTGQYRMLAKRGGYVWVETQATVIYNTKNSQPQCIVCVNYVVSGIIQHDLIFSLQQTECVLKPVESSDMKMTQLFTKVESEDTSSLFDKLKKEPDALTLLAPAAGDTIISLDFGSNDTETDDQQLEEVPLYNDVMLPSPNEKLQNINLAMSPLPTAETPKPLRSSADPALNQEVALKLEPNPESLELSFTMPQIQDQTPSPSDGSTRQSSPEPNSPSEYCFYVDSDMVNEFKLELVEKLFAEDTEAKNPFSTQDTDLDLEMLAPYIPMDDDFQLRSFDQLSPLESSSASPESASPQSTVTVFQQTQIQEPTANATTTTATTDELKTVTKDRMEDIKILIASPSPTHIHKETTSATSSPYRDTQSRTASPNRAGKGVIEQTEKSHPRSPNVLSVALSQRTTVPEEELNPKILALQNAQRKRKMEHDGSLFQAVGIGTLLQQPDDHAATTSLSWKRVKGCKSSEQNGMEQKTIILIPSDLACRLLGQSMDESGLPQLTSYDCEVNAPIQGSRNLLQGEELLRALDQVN
T1 sequence (P27540 2-789, chain 2 of 2): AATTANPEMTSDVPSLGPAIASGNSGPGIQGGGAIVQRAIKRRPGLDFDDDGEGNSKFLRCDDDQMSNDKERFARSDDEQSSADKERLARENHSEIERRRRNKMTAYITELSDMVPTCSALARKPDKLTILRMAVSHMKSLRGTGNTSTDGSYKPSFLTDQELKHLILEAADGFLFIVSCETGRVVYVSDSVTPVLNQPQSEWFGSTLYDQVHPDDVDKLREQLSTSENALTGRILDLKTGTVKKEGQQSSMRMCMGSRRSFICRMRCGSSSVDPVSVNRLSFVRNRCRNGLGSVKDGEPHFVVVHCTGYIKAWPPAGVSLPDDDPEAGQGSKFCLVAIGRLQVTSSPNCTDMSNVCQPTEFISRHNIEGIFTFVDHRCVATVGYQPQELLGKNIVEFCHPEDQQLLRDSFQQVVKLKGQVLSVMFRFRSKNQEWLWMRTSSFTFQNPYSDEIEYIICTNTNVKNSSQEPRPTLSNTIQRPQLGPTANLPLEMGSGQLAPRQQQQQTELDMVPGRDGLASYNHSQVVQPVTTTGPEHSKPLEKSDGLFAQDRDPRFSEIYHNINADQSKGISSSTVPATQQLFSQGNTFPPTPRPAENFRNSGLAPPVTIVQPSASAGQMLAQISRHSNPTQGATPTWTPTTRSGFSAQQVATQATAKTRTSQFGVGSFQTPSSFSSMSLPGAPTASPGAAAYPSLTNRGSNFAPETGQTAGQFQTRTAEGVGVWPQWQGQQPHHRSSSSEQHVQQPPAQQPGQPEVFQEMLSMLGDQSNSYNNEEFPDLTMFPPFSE
Description: Nuclear extracts were fractionated by DEAE-Sepharose chromatography, and fractions containing HIF-1 activity were applied to a W18 DNA affinity column. 5 ug of protein were incubated with 0.1 ug of calf thymus DNA for gel shift analysis of crude nuclear extract (Crude NE, lane 1) and HIF-1 active fractions from DEAE-Sepharose columns (DEAE, lane 2). For fractions from the W18 column (lanes 3–13), 1 ul aliquots were incubated with 5 ng of calf thymus DNA. The positions of the two HIF-1 bands, constitutive activity (C), nonspecific activity (NS), and free probe (F) are indicated. FT, flowthrough, 0.25M, 0.5M, 1M, and 2M are fractions eluted with indicated concentration of KCl in buffer Z. Figure 3B: FIG. 3B is an autoradiograph showing sequence-specific DNA binding of the partially purified fractions described in the legend to FIG. 3A. 5 ug aliquots of fractions from the DEAE-Sepharose column were incubated with W18 probe in the presence of no competitor (lane 1), 10-fold (lanes 2 and 5), 50-fold (lanes 3 and 6), or 250-fold (lanes 4 and 7) molar excess of unlabeled W18 (W, lanes 2–4) or M18 (M, lanes 5–7) oligonucleotide.
Since HIF-1 DNA binding activity from hypoxic Hep3B cells and CoCl_2-treated HeLa cells are indistinguishable (Example 1), HeLa S3 cells treated with 125 uM CoCl_2 were used as starting material for the large scale purification of HIF-1. […]

[2] = target: T2, endogenous HIF-1 in hypoxic Hep3B cells (Homo sapiens, UniProt Q16665;P27540 Q16665:1-826,P27540:2-789); assay: cell_activity; pPFKL3svcat, three copies, 1% vs 20% O2; details: chain copies: heterodimer (inferred); 5' GATC overhang
T2 sequence (Q16665 whole entry, chain 1 of 2): as the sequence (Q16665 whole entry, chain 1 of 2) above
T2 sequence (P27540 2-789, chain 2 of 2): as the sequence (P27540 2-789, chain 2 of 2) above
Description: (§1) Plasmids were purified by alkaline lysis and two rounds of cesium chloride density gradient centrifugation. Hep3B cells were transfected by electroporation with a Gene Pulser (Bio-Rad) at 260 V and 960 microfarads. Duplicate electroporations were pooled and split onto two 10 cm tissue culture dishes (Corning) containing 8 ml of media. Cells were allowed to recover for 24 h in a 5% CO_2 95% air incubator at 37° C., the media was replaced, and one set of duplicate plates was removed to a modular incubator chamber, which was flushed with 1% O_2, 5% CO_2, balance N_2, sealed, and placed at 37° C. Cells were harvested 72 h after transfection, and extracts were prepared for CAT and β-galactosidase activity.
(§2) To determine whether these HIF-1 binding sites were of functional importance, transient expression essays were performed using the reporter genes described above. Reporter plasmids were cotransfected into Hep3B cells with pSVβgal, which was included as a control for variation in transfection efficiency. Transfected cells were split among duplicate plates that were cultured in 1 or 20% O_2 for 48 h, CAT and β-galactosidase protein synthesized following transcription of reporter and control plasmids, respectively, were quantitated from cellular extracts. […]
(§3) HIF-1 binding site sequences from glycolytic genes were analyzed in the same assay. […]

[3] = target: T2, endogenous HIF-1 in hypoxic Hep3B cells; assay: cell_activity; pPGK2svcat, two copies, 1% vs 20% O2; details: chain copies: heterodimer (inferred); 5' GATC overhang
Description: as §1, §2, §3

[4] = target: T2, endogenous HIF-1 in hypoxic Hep3B cells; assay: cell_activity; psvcatEPO2, two copies, 1% vs 20% O2; one copy 4.9-fold; details: chain copies: heterodimer (inferred)
Description: Oligonucleotides were cloned into the BglII and BamHI sites located 5' and 3' to the transcription unit, respectively. Plasmids pNMHcat and pHcat (Concordet et al. (1991) Nucleic Acids Res. 19:4173–4180), containing human aldolase A gene sequences fused directly to CAT coding sequences, were provided by P. Maire. pSVβgal (Promega) contained bacterial lacZ coding sequences driven by the SV40 early region promoter and enhancer. Plasmids were purified by alkaline lysis and two rounds of cesium chloride density gradient centrifugation. Hep3B cells were transfected by electroporation with a Gene Pulser (Bio-Rad) at 260 V and 960 microfarads. Duplicate electroporations were pooled and split onto two 10 cm tissue culture dishes (Corning) containing 8 ml of media. […]
as §2, with “Reporter plasmids were cotransfected into Hep3B cells with pSVβgal, which was included as a control for variation in transfection efficiency.” left out

[5] = target: T1, HIF-1 (HIF-1alpha/HIF-1beta (ARNT) …); assay: competition; up to 250-fold excess M18 does not compete; HIF-1 flows through M18 column; details: tags: none; from CoCl2-treated HeLa S3 cells or hypoxic Hep3B cells; chain copies: heterodimer (inferred), higher-order form also seen; 5' gatc overhangs

B1: W18 (hEPO 3'-FS nt 1-18) (dsDNA)
DNA 1: GATCGCCCTACGTGCTGTCTCA
DNA 2: GATCTGAGACAGCACGTAGGGC
- binding result [1]: binds

B2: mPFKL IVS-1 +336/+361 (dsDNA)
DNA 1: GATCCCGGGTAGCTGGCGTACGTGCTGCAG
DNA 2: CTGCAGCACGTACGCCAGCTACCCGGGATC
- activity [2]: 47 fold induction

B3: hPGK1 5'-FS -172/-194 (dsDNA)
DNA 1: GATCGTGAGACGTGCGGCTTCCGTTTG
DNA 2: CAAACGGAAGCCGCACGTCTCACGATC
- activity [3]: 5.6 fold induction

B4: hEPO 3'-FS +3065/+3097 (dsDNA)
DNA 1: GCCCTACGTGCTGTCTCACACAGCCTGTCTGA
DNA 2: TCAGACAGGCTGTGTGAGACAGCACGTAGGGC
- activity [4]: 17 fold induction

B5: M18 (dsDNA)
DNA 1: GATCGCCCTAAAAGCTGTCTCA
DNA 2: GATCTGAGACAGCTTTTAGGGC
- binding result [5]: no binding
